Data taken from the supplement of paper PMC9732359.
± gives the uncertainty stated by the source.

Test: protein stability index of a GFP-peptide fusion (yeast GPS) (PSI 1-4); higher = more stable; sorted into four equal gates, so the index is relative within each strain
In short: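 Mid-log yeast cultures in leucine-free medium, carrying a pooled plasmid library, were sorted into four equal gates by their GFP/Cherry fluorescence ratio. Each plasmid expressed Cherry along with GFP fused upstream of a tiled 17-residue yeast protein peptide. Plasmids recovered from each gate were PCR-amplified and Illumina-sequenced, with reads assigned to strains by barcodes. The protein stability index was obtained by summing each gate's read frequency weighted by its gate number.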

Row | Sequence | protein stability index (doa10∆) | protein stability index (pdr5∆) | protein stability index (san1∆) | protein stability index (ubr1∆)
1 | MSDAVTIRTRKVISNPL [RPS24A] | 2.78 ± 0.23 | 2.69 ± 0.13 | 2.97 ± 0.13 | 2.23 ± 0.14
2 | PANHLQSDFCLSWCPSR [YGL100W/SEH1] | 1.8 ± 0.18 | 2.05 ± 0.12 | 2.43 ± 0.16 | 2.4 ± 0.06
3 | NAKRSHMMKRWGYQMVW [POP1] | 1.97 ± 0.052 | 2.38 ± 0.056 | 2.69 ± 0.077 | 2.67 ± 0.055
4 | ERIVVSYEYYNIKHKHT [SMC2] | 1.63 ± 0.047 | 1.86 ± 0.064 | 1.74 ± 0.11 | 1.87 ± 0.049
5 | TTFTHCEIHPSMILGVA [RPB2] | 1.75 ± 0.11 | 2.39 ± 0.075 | 1.3 ± 0.14 | 2.57 ± 0.098
6 | TFNNQDKGLLPYAIMET [RPO31] | 1.99 ± 0.067 | 2.46 ± 0.085 | 1.44 ± 0.075 | 1.48 ± 0.058
7 | QQPNPLHGLTPTAKDVE [GAL11] | 3.17 ± 0.053 | 2.98 ± 0.041 | 3.15 ± 0.06 | 3.07 ± 0.033
8 | GDYSQATVLSRKILKKT [RPN5] | 2.68 ± 0.054 | 2.87 ± 0.067 | 2.75 ± 0.06 | 2.95 ± 0.051
9 | VQRQIEQQKGQQTAQTQ [SNF5] | 3.41 ± 0.08 | 3.3 ± 0.078 | 3.3 ± 0.061 | 3.07 ± 0.055
10 | HDADLEVSMNSIFAMGL [RPN1] | 1.85 ± 0.038 | 2.69 ± 0.045 | 2.65 ± 0.047 | 2.4 ± 0.034
11 | YTYSSTLSHLRRTNTPI [RPB2] | 2.06 ± 0.043 | 2.13 ± 0.04 | 2.23 ± 0.063 | 2.17 ± 0.033
12 | NSGKQQYYRGLPLYEKN [SWP82] | 2.56 ± 0.089 | 2.5 ± 0.06 | 2.9 ± 0.075 | 3.01 ± 0.043
13 | SILGKFCPIVEEIVSNS [YCS4] | 1.95 ± 0.091 | 1.51 ± 0.12 | 1.6 ± 0.14 | 1.55 ± 0.066
14 | LTNQLYKNHELLKLERK [SNF2] | 3.15 ± 0.063 | 3.12 ± 0.059 | 3.11 ± 0.039 | 3.2 ± 0.053
15 | DEFYINVDKNLNEIKEH [RPN14] | 2.51 ± 0.072 | 2.5 ± 0.054 | 2.73 ± 0.062 | 2.92 ± 0.067
16 | SKQVTDYYQSIYAKYGA [FAS2] | 2.73 ± 0.051 | 2.67 ± 0.052 | 2.54 ± 0.057 | 2.77 ± 0.041
17 | SDEEESVLDEQEQYQTN [SNU114] | 3.11 ± 0.14 | 3.25 ± 0.079 | 3.25 ± 0.11 | 3.31 ± 0.069
18 | RSALEKGSRFISTLQVK [RPB2] | 1.47 ± 0.13 | 1.23 ± 0.087 | 1.67 ± 0.19 | 1.6 ± 0.088
19 | HGDAAVLLVEKYGAEYD [NAS6] | 1.94 ± 0.21 |  | 2.96 ± 0.22 | 3.04 ± 0.19
20 | KTKWDRKPMGKRINFEK [POP1] | 2.84 ± 0.11 | 3.35 ± 0.075 | 2.75 ± 0.23 | 3 ± 0.17
21 | FFDGSASSTPIPVLGKP [YOR098C/NUP1] | 2.6 ± 0.044 | 2.94 ± 0.04 | 2.72 ± 0.036 | 2.67 ± 0.026
22 | AEKELEAEIECFDSTTG [RRP40] | 3.21 ± 0.17 | 3.06 ± 0.14 | 3.05 ± 0.1 | 2.66 ± 0.14
23 | KFPETSYPILNESSTFL [SIN4] | 2.47 ± 0.04 | 2.71 ± 0.034 | 2.58 ± 0.042 | 2.64 ± 0.032
24 | SEKNKRQSKSSGKSNTS [ITC1] | 3.06 ± 0.094 | 3.31 ± 0.071 | 2.98 ± 0.073 | 3.16 ± 0.1
25 | PTLQVGDLVYARVCTAE [RRP40] | 1.5 ± 0.075 | 1.85 ± 0.12 | 1.42 ± 0.12 | 1.88 ± 0.082
26 | AAMVIMHLMALHIHGSS [COB] | 1.9 ± 0.051 | 1.48 ± 0.059 | 1.35 ± 0.093 | 1.35 ± 0.044
27 | KEAVFKSLGVKSLGGGA [FAS2] | 3.26 ± 0.078 | 3.36 ± 0.12 | 3.25 ± 0.069 | 3.41 ± 0.092

Row | Sequence | protein stability index (doa10∆) | protein stability index (pdr5∆) | protein stability index (san1∆) | protein stability index (ubr1∆)
28 | ALENDVATNIVNEDPIF [YML103C/NUP188] | 2.94 ± 0.051 | 3.1 ± 0.068 | 3.04 ± 0.052 | 3.05 ± 0.048
29 | PEHLRKIINTHSDMASK [PRP8] | 2.01 ± 0.053 | 2.04 ± 0.051 | 2.15 ± 0.097 | 2.37 ± 0.039
30 | YASYFPYLLETYANVLI [RPN7] | 1.57 ± 0.088 | 1.43 ± 0.062 | 1.18 ± 0.096 | 1.08 ± 0.043
31 | AKRNLDANPSSQIIARN [SMC2] | 2.49 ± 0.083 | 2.79 ± 0.076 | 3.09 ± 0.095 | 2.92 ± 0.065
32 | NDAMAGGFTAYGGADYG [RPO21] | 1.78 ± 0.083 | 1.91 ± 0.066 | 1.92 ± 0.1 | 1.86 ± 0.074
33 | ETEFPPFREFLQVLIDQ [ECM29] | 3.46 ± 0.19 | 3.45 ± 0.16 | 3.2 ± 0.095 | 3.27 ± 0.12
34 | SRDLWCFSINDDPVPTP [SSN2] | 2.21 ± 0.085 | 2.21 ± 0.088 | 2.94 ± 0.081 | 2.63 ± 0.1
35 | RNMIIVPEMIGSVVGIY [RPS15] | 1.31 ± 0.094 | 1.42 ± 0.057 | 1.53 ± 0.13 | 1.45 ± 0.057
36 | TKNDAGSKQILKTEAAN [BRR2] | 2.85 ± 0.055 | 2.95 ± 0.054 | 2.93 ± 0.039 | 3.04 ± 0.055
37 | RALFRQLKRWYWQFNGV [RMP1] | 2.29 ± 0.18 | 1.24 ± 0.12 | 1.19 ± 0.18 | 1.34 ± 0.11
38 | DEEMLTSCTIPKAVVDH [GAL11] | 2.94 ± 0.085 | 2.77 ± 0.076 | 2.44 ± 0.12 | 2.9 ± 0.076
39 | NDDKKTEPDKPAFSFNS [YJL041W/NSP1] | 2.89 ± 0.047 | 3.12 ± 0.039 | 3.07 ± 0.032 | 3.202 ± 0.029
40 | DSLIQLANRSKENFILD [YJL039C/NUP192] |  |  | 3.23 ± 0.14 | 3.13 ± 0.11
41 | KGEQIAIFPYQDPIFGS [ECM29] | 2.09 ± 0.048 | 2.28 ± 0.053 | 2.37 ± 0.067 | 2.23 ± 0.039
42 | SYSGYDIEDALVLNKSS [RET1] | 2.4 ± 0.059 | 2.63 ± 0.052 | 2.18 ± 0.071 | 2.45 ± 0.047
43 | DNKINEIKLLEISCKQW [CSI1] | 2.54 ± 0.18 | 2.43 ± 0.17 | 2.17 ± 0.12 | 2.45 ± 0.12
44 | TSDLVKSLGLKLPLSVI [RPS17A] | 1.12 ± 0.07 | 1.52 ± 0.078 | 1.86 ± 0.16 | 1.95 ± 0.091
45 | KELVECHLYSQRMHAIH [NNF1] | 1.96 ± 0.056 | 2.05 ± 0.049 | 2.05 ± 0.085 | 2.23 ± 0.05
46 | GTANNNSNTTNQNSSTG [YJL041W/NSP1] | 3.19 ± 0.064 | 3.37 ± 0.075 | 3.25 ± 0.042 | 3.09 ± 0.061
47 | GSEILGDLKLQVLLDEE [RPO21] | 3.25 ± 0.12 | 3.35 ± 0.13 | 3.04 ± 0.14 | 3.28 ± 0.1
48 | SDNISRKYEISFGKIYV [RPB2] | 2.79 ± 0.059 | 3.32 ± 0.073 | 2.78 ± 0.068 | 2.72 ± 0.072
49 | SEDHSFRKIKLRVDEVQ [RPS1A] | 3.1 ± 0.12 | 3.16 ± 0.11 | 3.1 ± 0.071 | 3.22 ± 0.071
50 | GYRSRTRYMFQRDFRKH [RPL21A] | 3.16 ± 0.07 | 3.19 ± 0.08 | 3.16 ± 0.049 | 3.3 ± 0.049
51 | KRAASVARHIYMRKQVG [RPS19A] | 1.7 ± 0.2 |  | 1.88 ± 0.28 | 
52 | PNTSDNNNNSNNHNMRN [SWI1] | 3.12 ± 0.053 | 3.02 ± 0.059 | 2.93 ± 0.046 | 3.15 ± 0.038
53 | VTKILPHLIIQNHNSKS [IRR1] | 1.41 ± 0.11 | 1.19 ± 0.072 | 1.16 ± 0.13 | 1.15 ± 0.073
